Experiments:
[1] = molecular target: T1, C-terminal histidine-tagged YgiT
T1 chain: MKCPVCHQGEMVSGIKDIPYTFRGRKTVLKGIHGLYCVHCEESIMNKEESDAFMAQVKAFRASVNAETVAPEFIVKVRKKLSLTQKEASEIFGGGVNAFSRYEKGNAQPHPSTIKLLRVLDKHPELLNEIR

MazE, P0AE72 = molecular target: T2, MazE, P0AE72
T2 chain: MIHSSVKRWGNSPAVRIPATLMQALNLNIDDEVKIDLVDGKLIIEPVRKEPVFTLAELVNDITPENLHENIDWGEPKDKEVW

B1: MazF (protein)
chain: MVSRYVPDMGDLIWVDFDPTKGSEQAGHRPAVVLSPFMYNNKTGMCLCVPCTTQSKGYPFEVVLSGQERDGVALADQVKSIAWRARGATKKGTVAPEELQLIKAKINVLIG
cleavage of MS2 RNA (agarose gel) [1]: when MazF was incubated with purified YgiT-H, its activity was not inhibited | cleavage of MS2 RNA (agarose gel) (MazE, P0AE72): its activity was completely inhibited when it was preincubated with purified MazE, the antidote of MazF

Reference: US20110217282
